Measurements from the Immune Epitope Database (IEDB).

The sequences below were run against HLA-A*02:01 (assay: IEDB peptide-MHC binding, cellular MHC/competitive/fluorescence; ≥ and ≤ were set here for values at or beyond the usual limits of such assays). Conditions: source organism: Human papillomavirus 16.
In the case of EYMLDLQPET, the IC50 is reported as 45.3 µM.
TLEDLLMGT was tested, and the IC50 was 64.6 µM.
ELQTTIHDI gave an IC50 of 36.9 µM.
With EDLLMGTLGIV the IC50 was 14.2 µM.
YMLDLQPE gave an IC50 of 8.07 µM.
TLHEYMLDLQP gave an IC50 of 19.4 µM.
YMLDLQPETTD gave an IC50 of 2.37 µM.
IRTLEDLLMGT gave an IC50 of 31.9 µM.
In the case of MLDLQPET, the IC50 is reported as 53.7 µM.
Sequence RTLEDLLMGT has an IC50 of 66.9 µM.
Sequence RTLEDLLMGTL has an IC50 of 2.69 µM.
